Source: patent US20240182536A1 (MURAL ONCOLOGY, published 2024)

T1: IL-18 receptors on HEK-Blue IL-18 reporter cells (UniProt Q13478 19-541; O95256 20-599, limits assumed)
T1 sequence (looked up) 1: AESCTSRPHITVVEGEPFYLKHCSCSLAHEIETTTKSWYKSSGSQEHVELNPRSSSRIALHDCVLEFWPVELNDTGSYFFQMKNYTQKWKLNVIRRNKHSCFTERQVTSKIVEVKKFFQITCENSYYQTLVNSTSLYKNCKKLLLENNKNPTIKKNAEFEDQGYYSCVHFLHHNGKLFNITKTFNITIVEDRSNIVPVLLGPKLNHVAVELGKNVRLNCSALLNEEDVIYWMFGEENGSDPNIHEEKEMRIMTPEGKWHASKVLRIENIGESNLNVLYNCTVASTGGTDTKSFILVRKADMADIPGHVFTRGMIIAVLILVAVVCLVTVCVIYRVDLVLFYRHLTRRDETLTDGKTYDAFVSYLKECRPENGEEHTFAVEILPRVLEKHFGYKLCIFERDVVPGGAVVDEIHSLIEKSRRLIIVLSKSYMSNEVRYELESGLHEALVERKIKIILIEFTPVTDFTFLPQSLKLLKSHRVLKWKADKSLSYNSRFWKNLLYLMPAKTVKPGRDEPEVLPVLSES
T1 sequence (looked up) 2: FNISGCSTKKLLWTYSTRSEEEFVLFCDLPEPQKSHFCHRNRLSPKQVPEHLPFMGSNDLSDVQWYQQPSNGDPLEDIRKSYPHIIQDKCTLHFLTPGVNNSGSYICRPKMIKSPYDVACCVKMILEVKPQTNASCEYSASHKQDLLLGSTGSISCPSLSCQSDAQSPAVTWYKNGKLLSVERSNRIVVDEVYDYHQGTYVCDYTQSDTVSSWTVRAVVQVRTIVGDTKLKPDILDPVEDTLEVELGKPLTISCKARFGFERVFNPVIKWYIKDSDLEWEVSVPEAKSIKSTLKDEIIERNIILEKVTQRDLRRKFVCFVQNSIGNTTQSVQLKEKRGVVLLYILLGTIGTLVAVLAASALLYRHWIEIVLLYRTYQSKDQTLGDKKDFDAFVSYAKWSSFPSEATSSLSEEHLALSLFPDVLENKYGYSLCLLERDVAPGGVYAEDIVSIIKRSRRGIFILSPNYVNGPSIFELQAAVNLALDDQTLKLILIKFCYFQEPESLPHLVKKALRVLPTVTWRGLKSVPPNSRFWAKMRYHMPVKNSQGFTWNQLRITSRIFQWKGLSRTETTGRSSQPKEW

T2: IL-18 binding protein (IL-18BP) (UniProt O95998 31-194)
T2 sequence (looked up): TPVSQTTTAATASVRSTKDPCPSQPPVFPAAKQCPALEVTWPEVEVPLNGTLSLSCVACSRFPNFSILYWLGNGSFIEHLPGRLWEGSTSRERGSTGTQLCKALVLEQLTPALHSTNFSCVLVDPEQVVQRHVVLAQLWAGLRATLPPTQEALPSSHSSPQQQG


What was measured:
[1] = target: T1, IL-18 receptors on HEK-Blue IL-18 …; assay: cell-based or functional assay
[2] = target: T2, IL-18 binding protein (IL-18BP); assay: cell-based or functional assay

Binder | Activity, No BP, DF-100000 [1] | Activity, No BP, DF-500000 [1] | Activity, No BP, DF-2500000 [1] | Activity, +100 nM BP, DF-1000002 [2] | Activity, +100 nM BP, DF-5000003 [2] | Activity, +100 nM BP, DF-25000004 [2] | Ratio (-BP/+BP), DF-1000005 [2] | Ratio (-BP/+BP), DF-5000006 [2] | Ratio (-BP/+BP), DF-25000007 [2]
IL-18 variant G3Q, E6G, D54N, S55H, T63V, N91M, R104T (ligand) YFQKLGSKLSVIRNLNDQVLFIDQGNRPLFEDMTDSDMRDNAPRTIFIISMYKNHQPRGMAVVISVKSEKISTLSSENKIISFKEMNPPDMIKDTKSDIIFFQTSVPGHDNKMQFESSSYEGYFLASEKERDLFKLILKKEDELGDRSIMFTVQNED | 1.99 | 1.82 | 1.01 | 1.83 | 1.38 | 0.7 | 1.09 | 1.32 | 1.44
IL-18 variant G3D, E6Q, R27S, K53R, D54A, S55R, T63S, N91Q (ligand) YFDKLQSKLSVIRNLNDQVLFIDQGNSPLFEDMTDSDMRDNAPRTIFIISMYRARQPRGMAVSISVKSEKISTLSSENKIISFKEMNPPDQIKDTKSDIIFFQRSVPGHDNKMQFESSSYEGYFLASEKERDLFKLILKKEDELGDRSIMFTVQNED | 1.02 | 0.41 | 0.13 | 0.52 | 0.15 | 0.09 | 1.95 | 2.81 | 1.5
IL-18 variant N91S, R104H (ligand) YFGKLESKLSVIRNLNDQVLFIDQGNRPLFEDMTDSDMRDNAPRTIFIISMYKDSQPRGMAVTISVKSEKISTLSSENKIISFKEMNPPDSIKDTKSDIIFFQHSVPGHDNKMQFESSSYEGYFLASEKERDLFKLILKKEDELGDRSIMFTVQNED | 1.34 | 0.61 | 0.19 | 0.09 | 0.08 | 0.11 | 14.7 | 7.35 | 1.72
IL-18 variant G3L, E6Q, T63S, N91L, R104T (ligand) YFLKLQSKLSVIRNLNDQVLFIDQGNRPLFEDMTDSDMRDNAPRTIFIISMYKDSQPRGMAVSISVKSEKISTLSSENKIISFKEMNPPDLIKDTKSDIIFFQTSVPGHDNKMQFESSSYEGYFLASEKERDLFKLILKKEDELGDRSIMFTVQNED | 2.12 | 2.01 | 1.85 | 1.81 | 1.15 | 0.46 | 1.17 | 1.75 | 4
IL-18 variant G3E, E6G, N91M, R104A (ligand) YFEKLGSKLSVIRNLNDQVLFIDQGNRPLFEDMTDSDMRDNAPRTIFIISMYKDSQPRGMAVTISVKSEKISTLSSENKIISFKEMNPPDMIKDTKSDIIFFQASVPGHDNKMQFESSSYEGYFLASEKERDLFKLILKKEDELGDRSIMFTVQNED | 2.05 | 2 | 1.54 | 1.93 | 1.41 | 0.53 | 1.06 | 1.41 | 2.92
IL-18 variant E6D, D54T, S55W, T63S, N91S, R104T (ligand) YFGKLDSKLSVIRNLNDQVLFIDQGNRPLFEDMTDSDMRDNAPRTIFIISMYKTWQPRGMAVSISVKSEKISTLSSENKIISFKEMNPPDSIKDTKSDIIFFQTSVPGHDNKMQFESSSYEGYFLASEKERDLFKLILKKEDELGDRSIMFTVQNED | 1.27 | 0.55 | 0.18 | 0.37 | 0.15 | 0.1 | 3.41 | 3.62 | 1.93
IL-18 variant G3I, E6Q, N91M, R104Y (ligand) YFIKLQSKLSVIRNLNDQVLFIDQGNRPLFEDMTDSDMRDNAPRTIFIISMYKDSQPRGMAVTISVKSEKISTLSSENKIISFKEMNPPDMIKDTKSDIIFFQYSVPGHDNKMQFESSSYEGYFLASEKERDLFKLILKKEDELGDRSIMFTVQNED | 2.12 | 2 | 1.53 | 1.84 | 0.96 | 0.29 | 1.15 | 2.07 | 5.26
IL-18 variant G3E, E6H, R27S, D54A, S55T, T63S, N91F, R104S (ligand) YFEKLHSKLSVIRNLNDQVLFIDQGNSPLFEDMTDSDMRDNAPRTIFIISMYKATQPRGMAVSISVKSEKISTLSSENKIISFKEMNPPDFIKDTKSDIIFFQSSVPGHDNKMQFESSSYEGYFLASEKERDLFKLILKKEDELGDRSIMFTVQNED | 2.08 | 1.83 | 1.14 | 1.8 | 1.11 | 0.41 | 1.16 | 1.65 | 2.79
IL-18 variant E6G, D54A, S55K, T63S, N91K, Q114R (ligand) YFGKLGSKLSVIRNLNDQVLFIDQGNRPLFEDMTDSDMRDNAPRTIFIISMYKAKQPRGMAVSISVKSEKISTLSSENKIISFKEMNPPDKIKDTKSDIIFFQRSVPGHDNKMRFESSSYEGYFLASEKERDLFKLILKKEDELGDRSIMFTVQNED | 2.2 | 2.05 | 1.61 | 1.89 | 1.33 | 0.49 | 1.17 | 1.54 | 3.3
IL-18 variant G3S, E6G, D54V, S55K, T63S, N91Y, R104T (ligand) YFSKLGSKLSVIRNLNDQVLFIDQGNRPLFEDMTDSDMRDNAPRTIFIISMYKVKQPRGMAVSISVKSEKISTLSSENKIISFKEMNPPDYIKDTKSDIIFFQTSVPGHDNKMQFESSSYEGYFLASEKERDLFKLILKKEDELGDRSIMFTVQNED | 1.95 | 1.77 | 1.26 | 1.64 | 0.85 | 0.32 | 1.19 | 2.08 | 3.88
IL-18 variant G3L, E6Q, D54Y, S55P, T63S, N91S, R104Q (ligand) YFLKLQSKLSVIRNLNDQVLFIDQGNRPLFEDMTDSDMRDNAPRTIFIISMYKYPQPRGMAVSISVKSEKISTLSSENKIISFKEMNPPDSIKDTKSDIIFFQQSVPGHDNKMQFESSSYEGYFLASEKERDLFKLILKKEDELGDRSIMFTVQNED | 1.66 | 0.9 | 0.37 | 0.75 | 0.19 | 0.1 | 2.23 | 4.67 | 3.8
